In the assay the target is T1, hANGPTL3(17-460)-His (human, UniProt Q9Y5C1 17-460).
T1 construct: Bought protein (R&D Systems); also called full-length mature human ANGPTL3 with a C-terminal decahistidine tag; Human ANGPTL3 (17-460)-His
T1 sequence: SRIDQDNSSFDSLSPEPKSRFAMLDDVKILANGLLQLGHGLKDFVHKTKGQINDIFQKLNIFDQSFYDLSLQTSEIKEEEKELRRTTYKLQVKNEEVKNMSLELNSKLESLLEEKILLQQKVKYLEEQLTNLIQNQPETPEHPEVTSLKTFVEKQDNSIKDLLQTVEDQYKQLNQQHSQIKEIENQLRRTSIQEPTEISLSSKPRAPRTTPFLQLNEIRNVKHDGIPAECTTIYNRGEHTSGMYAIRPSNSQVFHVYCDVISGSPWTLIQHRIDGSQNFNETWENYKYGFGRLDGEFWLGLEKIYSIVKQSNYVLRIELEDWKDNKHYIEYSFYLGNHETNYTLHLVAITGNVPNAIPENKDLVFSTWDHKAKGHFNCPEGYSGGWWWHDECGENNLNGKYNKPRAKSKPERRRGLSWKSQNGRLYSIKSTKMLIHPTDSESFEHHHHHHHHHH
Nature of the assay: SPR Biacore, antigen captured, 37C, pH 7.2, PBSP. The procedure: All kinetic binding experiments were performed at 25° C. or 37° C. on a BIACORE™ T200 label-free molecular interaction instrument (GE Healthcare) using a CM5 sensor chip. Briefly, an antigen capture surface was generated by covalently coupling either an anti-mouse IgG-specific antibody (anti-mFc; GE Healthcare; catalog #BR-1008-38) or an anti-pentahistidine-specific antibody (Qiagen; catalog #34660) to the surface of a CM5 sensor chip using a standard amine coupling method.
(In general: In SPR one partner is held on a chip, and binding of the other changes the refractive index at the surface.)

One molecule from patent US20150197564A1 (Regeneron, published 2015) can be followed below.

B1: H4H1276S (antibody, IgG4, V domains shown)
VH: EVQLVESGGGVIQPGGSLRLSCAASGFTFDDYAMNWVRQGPGKGLEWVSAISGDGGSTYYADSVKGRFTISRDNSKNSLYLQMNSLRAEDTAFFYCAKDLRNTIFGVVIPDAFDIWGQGTMVTVSS
VL: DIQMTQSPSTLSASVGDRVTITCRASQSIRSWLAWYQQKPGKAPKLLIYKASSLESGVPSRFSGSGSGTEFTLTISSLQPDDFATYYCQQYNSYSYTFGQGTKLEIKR
The molecule B1 displayed a Kd of 1.76 nM, a koff of 0.00118 s⁻¹, an on-rate constant (kon) of 667000 M⁻¹ s⁻¹ and a t1/2 of 9.8 min.

The Kd is the concentration at which binding is half-saturated. Higher therefore signals weaker binding. One may read the koff as the first-order rate constant of dissociation. The kon is the rate constant with which the complex forms. A higher kon goes with faster complex formation.
